Our source for the Kd values is article PMC3097154 (2011).

A word on the Kd: it is the free concentration of one partner at which half of the binding sites on the other are occupied at equilibrium, for simple one-to-one binding. A higher Kd goes with weaker binding.

The data set deals with the molecule itself. In words: ITC. In general terms: ITC needs no label: the signal is the heat of the interaction.

B1: HIV-1 capsid CTD CTD (protein)
chain: not shown
The protein B1 gave a Kd of approximately 15 µM.
